The values that follow come from the supplement of paper PMC11316812.

One data set relates to MCF7. As to the kind of experiment: percentage of EdU-negative (G0-arrested) nuclei per well, 72 h; higher = more G0 arrest. Conditions: reference: sequence is the full UniProt precursor, the tested protein was the secreted form or ectodomain.
Another data set concerns hTERT-HMEC. The description is as above. The following applies: reference: sequence is the full UniProt precursor, the tested protein was the secreted form or ectodomain.
Where [1] appears, read: protein concentration 0.0225 µM.
The mark [2] stands for this setting: protein concentration 0.0255 µM.
The mark [3] stands for this setting: protein concentration 0.03125 µM.
Setting [4] is: protein concentration 0.3125 µM.
The mark [5] stands for this setting: protein concentration 0.0111429 µM.
Where [6] appears, read: protein concentration 0.111429 µM.

± gives the standard deviation of the averaged measurements.
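Also: secreted proteins added to cultured cells, EdU pulse at the end, nuclei found by Hoechst imaging, EdU status from nuclear versus surrounding ring intensity ratio, PBS as neutral control.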

As to “MLLSVPLLLGLLGLAVAEPAVYFKEQFLDGDGWTSRWIESKHKSDFGKFVLSSGKFYGDEEKDKGLQTSQDARFYALSASFEPFSNKGQTLVVQFTVKHEQNIDCGGGYVKLFPNSLDQTDMHGDSEYNIMFGPDICGPGTKKVHVIFNYKGKNVLINKDIRCKDDEFTHLYTLIVRPDNTYEVKIDNSQVESGSLEDDWDFLPPKKIKDPDASKPEDWDERAKIDDPTDSKPEDWDKPEHIPDPDAKKPEDWDEEMDGEWEPPVIQNPEYKGEWKPRQIDNPDYKGTWIHPEIDNPEYSPDPSIYAYDNFGVLGLDLWQVKSGTIFDNFLITNDEAYAEEFGNETWGVTKAAEKQMKDKQDEEQRLKEEEEDKKRKEEEEAEDKEDDEDKDEDEEDEEDKEEDEEEDVPGQAKDEL”, the “percentage of EdU-negative” value in the data set with MCF7 (setting [1]) is 21.8 ± 0.44%; in the data set on MCF7 (protein concentration 0.225 µM), 28.2 ± 2.5%; with hTERT-HMEC (setting [1]) it was 5.2 ± 0.44%; in the data set on hTERT-HMEC (protein concentration 0.225 µM), 15.5 ± 2.6%.

In the case of “MALPFALLMALVVLSCKSSCSLDCDLPQTHSLGHRRTMMLLAQMRRISLFSCLKDRHDFRFPQEEFDGNQFQKAEAISVLHEVIQQTFNLFSTKDSSVAWDERLLDKLYTELYQQLNDLEACVMQEVWVGGTPLMNEDSILAVRKYFQRITLYLTEKKYSPCAWEVVRAEIMRSFSSSRNLQERLRRKE”, the “percentage of EdU-negative” value in the data set on MCF7 (setting [2]) was found to be 48.4 ± 2.7%; with MCF7 (protein concentration 0.255 µM), 49.64 ± 0.2%; with hTERT-HMEC (setting [2]), 15.8 ± 6.2%; in the data set with hTERT-HMEC (protein concentration 0.255 µM) it was 27.4 ± 0.99%.

For “MPRPAPARRLPGLLLLLWPLLLLPSAAPDPVARPGFRRLETRGPGGSPGRRPSPAAPDGAPASGTSEPGRARGAGVCKSRPLDLVFIIDSSRSVRPLEFTKVKTFVSRIIDTLDIGPADTRVAVVNYASTVKIEFQLQAYTDKQSLKQAVGRITPLSTGTMSGLAIQTAMDEAFTVEAGAREPSSNIPKVAIIVTDGRPQDQVNEVAARAQASGIELYAVGVDRADMASLKMMASEPLEEHVFYVETYGVIEKLSSRFQETFCALDPCVLGTHQCQHVCISDGEGKHHCECSQGYTLNADKKTCSALDRCALNTHGCEHICVNDRSGSYHCECYEGYTLNEDRKTCSAQDKCALGTHGCQHICVNDRTGSHHCECYEGYTLNADKKTCSVRDKCALGSHGCQHICVSDGAASYHCDCYPGYTLNEDKKTCSATEEARRLVSTEDACGCEATLAFQDKVSSYLQRLNTKLDDILEKLKINEYGQIHR”, the “percentage of EdU-negative” value in the data set on MCF7 (setting [1]) worked out at 22.2 ± 2.4%; with MCF7 (protein concentration 0.225 µM), 26.2 ± 2%; in the data set on hTERT-HMEC (setting [1]), 4.9 ± 0.095%; with hTERT-HMEC (protein concentration 0.225 µM), 5.61 ± 0.67%.

For “MALSFSLLMAVLVLSYKSICSLGCDLPQTHSLGNRRALILLAQMGRISHFSCLKDRHDFGFPEEEFDGHQFQKAQAISVLHEMIQQTFNLFSTEDSSAAWEQSLLEKFSTELYQQLNDLEACVIQEVGVEETPLMNEDSILAVRKYFQRITLYLTEKKYSPCAWEVVRAEIMRSLSFSTNLQKRLRRKD”, the “percentage of EdU-negative” value in the data set on MCF7 (setting [3]) is 40.1 ± 1.1%; in the data set on MCF7 (setting [4]), 46.8 ± 1.5%; in the data set with hTERT-HMEC (setting [3]), 9.16 ± 2.3%; in the data set on hTERT-HMEC (setting [4]), 13.8 ± 2.7%.

Consider “MRKELQLSLSVTLLLVCGFLYQFTLKSSCLFCLPSFKSHQGLEALLSHRRGIVFLETSERMEPPHLVSCSVESAAKIYPEWPVVFFMKGLTDSTPMPSNSTYPAFSFLSAIDNVFLFPLDMKRLLEDTPLFSWYNQINASAERNWLHISSDASRLAIIWKYGGIYMDTDVISIRPIPEENFLAAQASRYSSNGIFGFLPHHPFLWECMENFVEHYNSAIWGNQGPELMTRMLRVWCKLEDFQEVSDLRCLNISFLHPQRFYPISYREWRRYYEVWDTEPSFNVSYALHLWNHMNQEGRAVIRGSNTLVENLYRKHCPRTYRDLIKGPEGSVTGELGPGNK [Q9UNA3]”, for which the “percentage of EdU-negative” value with MCF7 (setting [5]) amounted to 26.4 ± 0.46%; in the data set on MCF7 (setting [6]), 27.4 ± 2.4%; in the data set with hTERT-HMEC (setting [5]), 4.541 ± 0.041%; in the data set with hTERT-HMEC (setting [6]) it was 5.48 ± 1.1%.

With “MWSLLLCGLSIALPLSVTADGCKDIFMKNEILSASQPFAFNCTFPPITSGEVSVTWYKNSSKIPVSKIIQSRIHQDETWILFLPMEWGDSGVYQCVIKGRDSCHRIHVNLTVFEKHWCDTSIGGLPNLSDEYKQILHLGKDDSLTCHLHFPKSCVLGPIKWYKDCNEIKGERFTVLETRLLVSNVSAEDRGNYACQAILTHSGKQYEVLNGITVSITERAGYGGSVPKIIYPKNHSIEVQLGTTLIVDCNVTDTKDNTNLRCWRVNNTLVDDYYDESKRIREGVETHVSFREHNLYTVNITFLEVKMEDYGLPFMCHAGVSTAYIILQLPAPDFRAYLIGGLIALVAVAVSVVYIYNIFKIDIVLWYRSAFHSTETIVDGKLYDAYVLYPKPHKESQRHAVDALVLNILPEVLERQCGYKLFIFGRDEFPGQAVANVIDENVKLCRRLIVIVVPESLGFGLLKNLSEEQIAVYSALIQDGMKVILIELEKIEDYTVMPESIQYIKQKHGAIRWHGDFTEQSQCMKTKFWKTVRYHMPPRRCRPFPPVQLLQHTPCYRTAGPELGSRRKKCTLTTG [Q9HB29]”, the “percentage of EdU-negative” value in the data set on MCF7 (setting [1]) came out at 24.7 ± 2.6%; with MCF7 (protein concentration 0.225 µM), 24 ± 0.89%; with hTERT-HMEC (setting [1]), 5.48 ± 0.32%; in the data set on hTERT-HMEC (protein concentration 0.225 µM), 6.16 ± 0.14%.
